Test results as given in patent US20180186897A1 (INSTITUTE FOR RESEARCH IN BIOMEDICINE, published 2018).

How the values were obtained:
[1] = molecular target: erythrocytes infected with P. falciparum field isolate 9106; experiment: flow cytometry, staining of IEs
[2] = molecular target: erythrocytes infected with P. falciparum field isolate 10936; experiment: flow cytometry, staining of IEs
[3] = molecular target: erythrocytes infected with P. falciparum field isolate 10975; experiment: flow cytometry, staining of IEs
[4] = molecular target: erythrocytes infected with P. falciparum field isolate 9215; experiment: flow cytometry, staining of IEs
[5] = molecular target: erythrocytes infected with P. falciparum field isolate 9775; experiment: flow cytometry, staining of IEs
[6] = molecular target: erythrocytes infected with P. falciparum field isolate 9605; experiment: flow cytometry, staining of IEs
[7] = molecular target: erythrocytes infected with P. falciparum field isolate 11014; experiment: flow cytometry, staining of IEs
[8] = molecular target: erythrocytes infected with P. falciparum field isolate 11019; experiment: flow cytometry, staining of IEs
[9] = molecular target: T1, RIFIN PF3D7_1400600 (Plasmodium falciparum); experiment: immunoprecipitation with MGD21, LC-MS
T1 construct: also called specific RIFIN
T1 chain: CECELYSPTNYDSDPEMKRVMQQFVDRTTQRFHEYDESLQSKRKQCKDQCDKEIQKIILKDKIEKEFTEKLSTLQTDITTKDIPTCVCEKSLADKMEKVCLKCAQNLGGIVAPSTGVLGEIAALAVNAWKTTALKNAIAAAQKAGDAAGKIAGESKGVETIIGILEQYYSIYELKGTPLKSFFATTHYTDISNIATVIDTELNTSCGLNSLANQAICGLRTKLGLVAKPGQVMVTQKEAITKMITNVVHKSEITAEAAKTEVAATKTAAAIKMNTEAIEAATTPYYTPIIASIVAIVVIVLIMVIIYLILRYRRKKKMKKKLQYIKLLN

B1: MGC34 (antibody)
VH: EVQLVESGGGLVQPGGSLRLSCEASGFTFSSYWMSWVRQAPGKGLEWVANINQDGSQKDYVDSVKGRFTISRDTAKNSLYLQMNSLRAEDTAVYYCARERLCTDDSHMHGEEDLPRPSISAEPGTVIPLGSHVTFVCRGPVGIHTFRLERESRSLYTETEDVTQVSPSESEARFRIESVTEGNAGLYRCVYYKPPKWSEQSDYLELLVKGEDVTRALFTHCGGDGKESDYHMDVWGKGTTVTVSS
VL: QTVVTQEPSLTVSPGGTVTLTCASSTGAVTSGYYPSWFHQKPGQPVRALIYSTSKTHSWTPARFSGSLLGGKAALTLSNVQPEDEADYYCLLYYGGPQPWVFGGGTKLTVQ
- % parasite recognition [1]: 6.8%
- % parasite recognition [2]: 11.3%
- % parasite recognition [3]: 15.2%
- % parasite recognition [4]: 27.1%
- % parasite recognition [5]: 17.5%
- % parasite recognition [6]: 23.7%
- % parasite recognition [7]: 11.4%
- % parasite recognition [8]: 34.1%

B2: MGD21 (antibody, IgG1)
VH: EVQLVETGPGLMKTSGTLSLTCAVSGDYVNTNRRWSWVRQAPGKGLEWIGEVHQSGRTNYNPSLKSRVTISVDKSKNQFSLKVDSVTAADTAVYYCARASPLKSQRDTDLPRPSISAEPGTVIPLGSHVTFVCRGPVGVQTFRLERERNYLYSDTEDVSQTSPSESEARFRIDSVNAGNAGLFRCIYYKSRKWSEQSDYLELVVKGEDVTWALSQSQDDPRACPQGELPISTDIYYVDVWGNGTTVTVSS
VL: AIRMTQSPSSLSASPGDKVSITCRASQHINDSLAWFQQRPGKAPKLLIYGASNLHSGVPSRFSGTGSGTDFTLTITGLQSEDFATYFCQQCNCFPPDFGQGTRLEIK
notes: Human mAb of donor D with LAIR-1 exon+intron insert in CDRH3; also called MGD21 ANTIBODY; mAb MGD21
- log2 fold change (enrichment in MGD21 immunoprecipitates of 3D7-MGD21+ against 3D7-MGD21- IEs) [9]: > 2 log2 fold change
